Test results: paper PMC3416805
Values joined by “and” are separate entries in the source; they are usually repeats but may differ in a detail not shown here. Identical values can stand only once.

Target: endogenous ASR1 from tomato fruit nuclei (tomato (endogenous in tomato fruit)) (UniProt Q08655)
Test: cross-linking; formaldehyde crosslinking of ground tomato fruit pericarp, nuclei purified, nuclear proteins passed over a Ni2+ column, SDS-PAGE and immunoblot with anti-ASR1 antiserum

percent of nuclear ASR1 in a monomeric form: > 90% | stoichiometry N: 2 and 3
Substance: endogenous ASR1 from tomato fruit nuclei (from UniProt Q08655 1-115) (natural protein)
